Values of other authors as cited in publication PMC9783754.

Target: S100A12 (Homo sapiens) (UniProt P80511)
Sequence (P80511 2-92): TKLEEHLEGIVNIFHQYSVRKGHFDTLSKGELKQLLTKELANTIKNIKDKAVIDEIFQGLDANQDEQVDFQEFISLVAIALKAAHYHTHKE

Chain of S100A12 (P80511 2-92): as above

S100A12 (from UniProt P80511)
Kd: 160 µM
